Among the data in article PMC5264654 are reduction of the affinity against PCNA^WT and Kd values, retold here.

Assay [1] addresses '3tag' PCNA^S228I (human) (UniProt P12004). The experiment in a line: SPR; reverse orientation: ~1000 RU biotinylated 3tag-PCNA on an SA chip; GST-PIP fusion as analyte, single cycle kinetics (Cdt1 highest 44.5 μM, p21 highest 27.9 μM); HBS-EP with 1 g/l BSA. A general note: SPR reads the build-up and loss of mass on a sensor chip optically.
Another assay addresses GST-Fen1 PIP box fusion (UniProt P39748). The experiment in a line: SPR; ~1000 RU GST-PIP fusion bound to a CM5 chip (acetate pH 5.5), GST as control lane; His-S-PCNA as analyte, 10 point 2x dilution series from 12 μM; equilibrium of binding, steady state affinity fit; HBS-EP (0.01 M HEPES pH 7.4, 0.15 M NaCl, 3 mM EDTA, 0.0005% IGEPAL) with 1 g/l BSA; Biacore T200.
Sequence of UniProt P39748 (P39748 whole entry, the tested form may be a part): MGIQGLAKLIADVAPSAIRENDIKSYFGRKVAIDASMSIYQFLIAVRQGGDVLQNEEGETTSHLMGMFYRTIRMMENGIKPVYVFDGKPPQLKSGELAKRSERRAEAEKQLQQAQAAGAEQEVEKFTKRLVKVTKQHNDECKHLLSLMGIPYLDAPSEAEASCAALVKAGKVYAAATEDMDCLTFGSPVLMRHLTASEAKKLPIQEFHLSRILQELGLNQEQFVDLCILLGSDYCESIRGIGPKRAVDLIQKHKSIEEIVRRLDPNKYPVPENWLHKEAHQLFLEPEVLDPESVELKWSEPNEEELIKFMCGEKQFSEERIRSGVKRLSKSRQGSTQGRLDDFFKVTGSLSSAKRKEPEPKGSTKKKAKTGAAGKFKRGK
The next assay has as its target GST-p21 PIP box fusion (UniProt P38936). The description is as above.
Sequence of UniProt P38936 (P38936 whole entry, the tested form may be a part): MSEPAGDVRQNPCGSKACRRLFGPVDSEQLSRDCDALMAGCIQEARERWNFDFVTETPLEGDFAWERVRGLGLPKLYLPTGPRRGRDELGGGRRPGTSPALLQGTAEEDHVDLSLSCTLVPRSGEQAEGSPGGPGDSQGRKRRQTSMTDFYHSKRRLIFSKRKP

In the case of “GST-p21 PIP box fusion (from UniProt P38936 1-164) (domain or fragment)”, the reduction of the affinity against PCNA^WT in assay [1] was determined as 10%.

Take “His-S-tagged PCNA^S228I (from UniProt P12004 1-258) (natural protein)”: the Kd in the assay with GST-Fen1 PIP box fusion came out at 15000 nM; with GST-p21 PIP box fusion, 3700 nM.

On to “His-S-tagged PCNA^WT (from UniProt P12004 1-261) (natural protein)”, for which the Kd with GST-Fen1 PIP box fusion was found to be 1100 nM; with GST-p21 PIP box fusion, 1800 nM.

What is called Kd is the concentration at which binding is half-saturated. A higher Kd goes with a looser complex.
